Measurements published in publication PMC7458460 (Science Advances, 2020).
Blank lines part the entries; values can stand above or below the binder they belong to.

Biological target: CN391 (CNA_(1–391)/CNB_(1–170)) (UniProt Q08209 1-391; P63098 1-170)
Test: ITC

Chain of CN391 (CNA_(1–391)/CNB_(1–170)) (Q08209 1-391, chain 1 of 2): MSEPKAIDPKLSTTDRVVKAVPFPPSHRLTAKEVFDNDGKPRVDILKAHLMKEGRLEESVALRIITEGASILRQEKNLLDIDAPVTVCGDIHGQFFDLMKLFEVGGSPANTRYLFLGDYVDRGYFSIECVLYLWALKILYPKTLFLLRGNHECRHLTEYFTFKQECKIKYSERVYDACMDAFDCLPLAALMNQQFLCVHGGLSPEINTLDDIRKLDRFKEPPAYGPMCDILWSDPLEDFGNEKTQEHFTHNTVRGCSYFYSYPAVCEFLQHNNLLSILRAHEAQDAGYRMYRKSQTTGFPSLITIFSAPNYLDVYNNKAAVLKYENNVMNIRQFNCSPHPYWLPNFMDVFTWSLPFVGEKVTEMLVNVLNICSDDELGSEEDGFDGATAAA
Chain of CN391 (CNA_(1–391)/CNB_(1–170)) (P63098 whole entry, chain 2 of 2): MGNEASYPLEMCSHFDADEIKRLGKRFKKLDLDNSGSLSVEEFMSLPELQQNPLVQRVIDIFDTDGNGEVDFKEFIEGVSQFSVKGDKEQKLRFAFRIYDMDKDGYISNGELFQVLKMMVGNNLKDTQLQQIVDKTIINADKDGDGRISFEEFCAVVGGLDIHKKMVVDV

Kd: 429 ± 85 nM
dH: -32.4 ± 1.6 kcal/mol
B1: p38-phosphorylated RCAN1 (residues 89 to 197) (domain or fragment)
chain: not shown
modifications: pS108, pS112, pT124, pT153, pT192 (pT152 partially, much more slowly)

Kd: 16 ± 5 nM
dH: -30.7 ± 0.8 kcal/mol
B2: RCAN1 CN-binding domain (residues 89 to 197) (domain or fragment)
chain: not shown
